{"source": "patent US9057734B2", "about": "“Optogenetic probes for measuring membrane potential” (President and Fellows of Harvard College, priority 2010, dated 2015)", "molecules": {"B1": {"name": "Arch D95N: D95N mutant of Archaerhodopsin 3 without photocurrent, voltage indicator (protein, UniProt P96787 7-258, looked up, variant D95N)", "Archaerhodopsin-3": "QAGYDLLGDGRPETLWLGIGTLLMLIGTFYFLVRGWGVTDKDAREYYAVTILVPGIASAAYLSMFFGIGLTEVTVGGEMLDIYYARYANWLFTTPLLLLDLALLAKVDRVTIGTLVGVDALMIVTGLIGALSHTAIARYSWWLFSTICMIVVLYFLATSLRSAAKERGPEVASTFNTLTALVLVLWTAYPILWIIGTEGAGVVGLGIETLLFMVLDVTAKVGFGFILLRSRAILGDTEAPEPSAGADVSAAD"}}, "key": {"E. coli": {"tested_on": "E. coli", "test": "Chemical perturbation of fluorescence flashing of E. coli expressing PROPS", "format": "cell-based", "details": "20 μg/mL", "excerpt": "PROPS was expressed in E. coli, the cells were immobilized on a glass coverslip, and imaged in an inverted epifluorescence microscope while gently flowing minimal medium at pH 7 over the cells. […] The flashes occurred simultaneously (to within the 10 ms imaging resolution) and homogeneously over the extent of a cell. Flashes were uncorrelated between neighboring cells.\nFlashing cells were subjected to chemical perturbations in an effort to deduce the mechanism of the voltage changes. In unstirred medium in a sealed chamber, the flashing ceased over ˜15 minutes; but re-started upon addition of freshly oxygenated medium. Removal of oxygen from the medium using Oxyrase also reversibly eliminated flashing. From these experiments it was concluded that flashing requires aerobic respiration. Under continuous gentle flow of aerated minimal medium, cells flashed continuously for >1 hr. Cells stored in minimal media for several days at 4° C. started flashing when warmed to room temperature.\nFlashing was highly sensitive to pHo, occurring only between pH 7 and 9. Flashing frequencies increased and on-time decreased at lower pH. Flashing was more likely to be periodic at lower pH. Extremes of pH (<6 or >9.5) irreversibly eliminated flashing, causing cells to enter the bright state in an abrupt transition."}, "[1]": {"test": "Spectroscopic characterization of purified Arch WT and D95N", "format": "physicochemical", "experimental": "FIGS. 17A-17C show pH-dependent spectra of Arch 3 WT and D95N. […] At neutral pH, Arch absorbed maximally at 558 nm. Fluorescence emission (dashed line) was recorded on 2 μM protein solubilized in 1% DM, with λexc=532 nm. […] The absorption maximum was at 585 nm. […] Singular Value Decomposition of absorption spectra between 400-750 nm was used to calculate the fraction of the SB in the protonated state as a function of pH. The result was fit to a Hill function to determine the pKa of the SB.\nArch and its D95N mutant were expressed and purified from E. coli, following Bergo, V., et al. (Conformational changes detected in a sensory rhodopsin II-transducer complex. J. Biol. Chem. 278, 36556-36562 (2003)). Briefly, E. coli (strain BL21, pet28b plasmid) was grown in 1 L of LB with 100 μg/mL kanamycin, to an O.D 600 of 0.4 at 37° C. All-trans retinal (5 μM) and inducer (IPTG 0.5 mM) were added and cells were grown for an additional 3.5 hours in the dark. Cells were harvested by centrifugation and resuspended in 50 mM Tris, 2 mM MgCl2 at pH 7.3 and lysed with a tip sonicator for 5 minutes. The lysate was centrifuged and the pellet was resuspended in PBS supplemented with 1.5% dodecyl maltoside (DM). The mixture was homogenized with a glass/teflon Potter Elvehjem homogenizer and centrifuged again. The supernatant was concentrated and washed using a centricon 30k MWCO filter to a final volume of 3 mL.\nThe absorption spectra of purified Arch 3 WT and D95N were determined using an Ocean Optics USB4000 spectrometer with a DT-MINI-2-GS light source. Absorption spectra, for Arch 3 WT and D95N, were measured as a function of pH between pH 6 and 11. To determine the fluorescence emission spectra, proteins in a quartz cuvette were illuminated with the uncollimated beam of a 100 mW, 532 nm laser (Dragon Lasers, 532GLM100) or a 25 mW, 633 nm HeNe laser (Spectra-Physics). Scattered laser light was blocked with a 532 nm Raman notch filter (Omega Optical, XR03) or a 710/100 emission filter (Chroma), and fluorescence was collected perpendicular to the illumination with a 1000 micron fiber, which passed the light to an Ocean Optics QE65000 spectrometer. Spectra were integrated for 2 seconds.\nThe fluorescence quantum yields of Arch 3 WT and D95N were determined by comparing the integrated emission intensity to emission of a sample of the dye ALEXA FLUOR® 647 Conjugate. Briefly, the concentrations of micromolar solutions of dye and protein were determined using a visible absorption spectrum. […] The fluorescence emission spectra of dye and protein samples were measured with 633 nm excitation. The quantum yield was then determined by the formula\nwhere Fl is the integrated fluorescence from 660 to 760 nm, ε is the extinction coefficient at 633 nm and c is the concentration."}, "HEK-293 cells": {"tested_on": "HEK-293 cells", "test": "Fluorescence versus membrane potential under whole-cell voltage clamp (ramp, step, frequency response, noise)", "format": "cell-based, human", "experimental": "Fluorescence of Arch 3 in HEK 293 cells was readily imaged in an inverted fluorescence microscope with red illumination (λ=640 nm, I=540 W/cm^2), a high numerical aperture objective, a Cy5 filter set, and an EMCCD camera. […] Cells not expressing Arch were not fluorescent.\nHEK-293 cells were grown at 37° C., 5% CO2, in DMEM supplemented with 10% FBS and penicillin-streptomycin. Plasmids were transfected using LIPOFECTAMINE™ and PLUS reagent (Invitrogen) following the manufacturer's instructions, and assayed between 48-72 hours later. The day before recording, cells were re-plated onto glass-bottom dishes (MatTek) at a density of ˜5000 cells/cm^2.\nThe concentration of endogenous retinal in the HEK cells was not known, so the cells were supplemented with retinal by diluting stock retinal solutions (40 mM, DMSO) in growth medium to a final concentration of 5 μM, and then placing the cells back in the incubator for 1-3 hours. All imaging and electrophysiology were performed in Tyrode's buffer (containing, in mM: 125 NaCl, 2 KCl, 3 CaCl2, 1 MgCl2, 10 HEPES, 30 glucose pH 7.3, and adjusted to 305-310 mOsm with sucrose). Only HEK cells having reversal potentials between −10 and −40 mV were included in the analysis.\nSimultaneous fluorescence and whole-cell patch clamp recordings were acquired on a home-built, inverted epifluorescence microscope at room temperature. A diode laser operating at 100 mW, 640 nm (CrystaLaser, DL638-100-O) provided wide-field illumination at an intensity typically between 500-2000 W/cm^2. To minimize background signal from out-of-focus debris, illumination was often performed in through-the-objective total internal reflection fluorescence (TIRF) mode. Fluorescence emission was collected using a 60×, 1.45 NA oil immersion objective (Olympus), and separated from scattered excitation using a 660-760 nm bandpass emission filter (Chroma). For fast imaging of dynamic fluorescence responses and action potentials, images were acquired on an Andor iXon^+ 860 camera operating at up to 2,000 frames/s (using a small region of interest and pixel binning). Slower images with higher spatial resolution were acquired on an Andor iXon^+ 897 EMCCD. Custom software written in LabView (National Instruments) was used to synchronize illumination, collection of images, recording of membrane potential and cell current, and application of electrical stimuli to the cell.\nFilamented glass micropipettes (WPI) were pulled to a tip resistance of 3-10 MΩ, fire polished, and filled with internal solution (containing, in mM: 125 Potassium gluconate, 8 NaCl, 0.6 MgCl2, 0.1 CaCl2, 1 EGTA, 10 HEPES, 4 Mg-ATP, 0.4 Na-GTP, pH 7.3; adjusted to 295 mOsm with sucrose). The micropipettes were positioned with a Burleigh PCS 5000 micromanipulator. Whole-cell, voltage clamp recordings were acquired using an AxoPatch 200B amplifier (Molecular Devices), filtered at 2 kHz with the internal Bessel filter, and digitized with a National Instruments PCIE-6323 acquisition board at 10 kHz. Ambient 60 Hz noise was removed using a HumBug Noise Eliminator (AutoMate Scientific). For experiments requiring rapid modulation of transmembrane potential, series resistance and whole-cell capacitance were predicted to 95% and corrected to ˜50%. Electrical stimuli were generated using the PCIE-6323 acquisition board and sent to the AXOPATCH™, which then applied these signals in either constant current or constant voltage mode.\nTo measure fluorescence as a function of membrane potential, a triangle wave was applied, with amplitude from −150 mV to +150 mV and period 12 s, with video recording at 100 ms per frame. A pixel weight matrix was calculated according to Eq. S2 and applied to the movie images to generate a fluorescence number for each frame. These fluorescence values were divided by their minimum value (at V=−150 mV). The result is plotted as a function of Vin FIGS. 7 and 8. […]"}, "HEK cells": {"tested_on": "HEK cells", "test": "Photocurrents under 640 nm illumination in voltage-clamped cells", "format": "cell-based, human", "details": "illumination at 640 nm", "experimental": "Measurements of photocurrents were performed on HEK cells held in voltage clamp at 0 mV while being exposed to brief (200 ms) pulses of illumination at 640 nm at an intensity of 1800 W/cm^2."}, "neurons": {"tested_on": "neurons", "test": "Light-induced photocurrent and perturbation of membrane potential in neurons", "format": "cell-based, rat", "details": "640 nm, 1800 W/cm2", "excerpt": "Under illumination conditions typically used for imaging neural activity (I=1800 W/cm2 in total internal reflection (TIR) mode), the light-induced outward photocurrent was typically 10 pA in neurons expressing Arch 3 WT. Under current-clamp conditions this photocurrent shifted the resting potential of the neurons by up to −20 mV. For neurons near their activation threshold, this photocurrent could suppress firing (FIG. 9A), so we explored the non-pumping variant D95N as a voltage indicator in neurons.\nWhole-cell current clamp recordings were obtained from mature neurons under the same conditions used for HEK cells recordings. Series resistance and pipette capacitance were corrected. Only neurons having resting potentials between −50 and −70 mV were used in the analysis."}}, "note": "Entries after “also recorded” stand apart in the source; their conditions may differ."}
{"molecule": "N#CC(C#N)=NNc1cccc(Cl)c1", "note": "[CCCP, Carbonyl cyanide 3-chlorophenylhydrazone]", "values": [{"measurement": "effect on blinking", "setting": "E. coli", "value": "rapidly and irreversibly eliminated the blinking"}]}
{"molecule": "B1", "values": [{"measurement": "ε633", "setting": "[1]; calibrated assuming peak extinction coefficient of Bacteriorhodopsin, 63,000 M^−1 cm^−1", "value": "37,500 M^−1cm^−1"}, {"measurement": "QY", "setting": "[1]; comparison to Alexa 647, excitation at 633 nm", "value": "4 × 10^−4"}, {"measurement": "comparison with Arch 3 WT", "setting": "HEK-293 cells", "value": "more sensitive and brighter than Arch 3 WT, but had a slower response"}, {"measurement": "voltage steps resolved/reported", "setting": "HEK-293 cells; HEK cells", "value": 10, "unit": "mV"}, {"measurement": "fast component of step response, time", "setting": "HEK-293 cells; step response", "value": "< 500", "unit": "μs"}, {"measurement": "response time to a step in membrane potential", "setting": "HEK-293 cells; steps between −70 mV and +30 mV", "value": 40, "unit": "ms"}, {"measurement": "increase of fluorescence (fold/factor) between −150 mV and +150 mV", "setting": "HEK-293 cells; whole-cell voltage clamp", "value": 3}, {"measurement": "photocurrent / photoinduced proton pumping", "setting": "HEK cells", "value": "no photocurrent; also recorded: eliminated the photocurrent"}, {"measurement": "photocurrent / photoinduced proton pumping", "setting": "HEK cells; listed as Arch 3 D95N", "value": "lacks photoinduced proton pumping"}, {"measurement": "effect of illumination on membrane potential", "setting": "neurons", "value": "no effect of illumination on spiking or resting potential; also recorded: did not perturb membrane potential"}]}
